Target: the molecule itself
Assay: solution NMR structure (AlphaFold-NMR: AFsample models selected against NOESY and chemical shift data); homodimer models of CDK2AP1(61-115) scored against NOESY peak lists (including 3D X-filtered NOESY on a mixed sample of 50% [15N,13C]-labeled and 50% unlabeled CDK2AP1, recorded earlier, ref. 47; 124 further peaks picked here) and chemical shifts (BMRB 16808); validated by NOESY Double Recall

B1: Cyclin-Dependent Kinase 2-Associated Protein 1 (residues 61-115) (domain or fragment, human, UniProt O14519 61-115, looked up)
chain: SKYAELLAIIEELGKEIRPTYAGSKSAMERLKRGIIHARGLVRECLAETERNARS
notes: Cyclin-Dependent Kinase 2-Associated Protein 1 (CDK2AP1), human, residues 61-115, the homodimeric four-helix bundle; The methods mention newly assigned H58 - K62 resonances, so the sample may carry residues (perhaps of a tag) before residue 61; also called CDK2AP1; CDK2AP1_(61–115)
B1: binds.
